The values that follow come from patent US20240182561A1 (Regeneron, published 2024).

Some results are limits rather than exact numbers.

Test [1] has as its target T1, mouse CACNG1 expressed on cells (mouse, UniProt O70578 1-223).
T1 sequence (looked up): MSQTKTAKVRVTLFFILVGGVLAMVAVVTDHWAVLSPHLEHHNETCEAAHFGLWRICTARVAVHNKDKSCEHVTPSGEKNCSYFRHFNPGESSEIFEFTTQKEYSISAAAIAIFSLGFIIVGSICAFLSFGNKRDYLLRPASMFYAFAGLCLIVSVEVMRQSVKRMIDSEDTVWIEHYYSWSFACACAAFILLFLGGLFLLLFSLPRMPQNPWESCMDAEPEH
In words: cell-based or functional assay.

In test [2] the target is T1, mouse CACNG1 expressed on cells. In words: imaging cell binding, HEK293/mCACNG1. The procedure: (§1) HuSKM were seeded in collagen-coated 96-well plates (Greiner Bio-One #655956) at 8,500 cells/well and grown for 24 hours. The growth media was changed to MyoTonic Differentiation Media (Cook Myosite Cat #MD-5555) and replaced every 2 days. Myotubes were assayed after 6 days of differentiation. C2C12 mouse myoblasts were maintained in DMEM with 10% FBS and 1% penicillin-streptomycin supplement and grown in a 37° C. incubator with 5% CO₂. C2C12 cells were seeded in collagen-coated 96-well plates (Greiner Bio-One #655956) at 10,000 cells/well for the cell binding assay and 5,000 cells/well for the cell killing assay. After 24 hours, growth media was replaced with differentiation media (DMEM with 2% horse serum) and placed in a 37° C. incubator with 7.5% CO₂. C2C12 myotubes were assayed after 3 days of differentiation. HEK293/hCACNG1, HEK293/mCACNG1, and HEK293 cells were seeded at 10,000 cells (cell binding assay) or 2,000 (cell killing assay) per well in 96-well black collagen coated plates (Greiner Bio-One, cat #655956) in complete growth media and grown overnight at 37° C. in 5% CO₂.
(§2) Relative binding of anti-CACNG1 antibodies was assessed across the entire panel of cell lines via imaging analysis. […] After one wash with antibody dilution buffer, samples were fixed in CytoFix (BD Biosciences, Cat #554655) diluted 1:1 in PBS and supplemented with a 1:2000 dilution of Hoechst 33342 (Thermo, Cat #H1399) for 20 minutes on ice. Images were acquired with a 10× objective on the Opera Phenix (Perkin Elmer) and relative fluorescence units (RFU) was determined using Harmony software (Perkin Elmer).

In test [3] the target is T2, nanodisc embedded human CACNG1 expressed with a C-terminal PADRE-Flag-His tag (human, UniProt Q06432 1-222).
T2 construct: Captured on an anti-His Biacore surface; also called human CACNG1 nanodisc; CACNG1 nanodisc; not shown: C-terminal tag
T2 sequence (Q06432 whole entry): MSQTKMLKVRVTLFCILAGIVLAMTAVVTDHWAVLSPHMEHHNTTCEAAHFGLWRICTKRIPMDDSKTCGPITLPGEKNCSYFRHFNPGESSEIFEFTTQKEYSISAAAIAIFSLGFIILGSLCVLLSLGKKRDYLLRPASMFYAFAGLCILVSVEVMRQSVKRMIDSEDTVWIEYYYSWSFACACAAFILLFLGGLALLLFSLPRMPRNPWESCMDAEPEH
In words: SPR, anti-His-captured nanodisc, 25 C. As to the method: Equilibrium dissociation constants (KD values) for nanodisc embedded human CACNG1 expressed with a C-terminal […] tag (human CACNG1 nanodisc; concentration 0.82 mg/ml) binding to purified anti-CACNG1 antibodies were determined using a real-time surface plasmon resonance biosensor technology with a Biacore T200 instrument. The CM5 Biacore sensor surface was derivatized by amine coupling with a monoclonal mouse anti-His antibody (Cytiva; Marlborough, MA). All Biacore binding studies were performed in a buffer composed of 0.01M HEPES, 0.15M NaCl, 1 mM CaCl₂, 0.5 mM MgCl₂, pH 7.4 (HBS-N++ running buffer). Different concentrations of anti-CACNG1 antibodies (ranging from 300 nM to 12 nM in 5-fold serial dilutions) prepared in HBS-N++ running buffer were injected over the captured human CACNG1 nanodisc at a flow rate of 30 μL/minute. Antibody association was monitored for 2 minutes while dissociation was monitored in HBS-N++ running buffer for 5 minutes. At the end of each cycle, the human CACNG1 nanodisc capture surface was regenerated using three 10 second injections of 10 mM Gly pH1.5. All binding kinetics experiments were performed at 25° C.
The specific SPR-Biacore sensorgrams were obtained by a double referencing procedure. The double referencing was performed by first subtracting the signal of each injection over a reference surface (anti-His) from the signal over the experimental surface (anti-His captured human CACNG1 nanodisc) thereby removing contributions from refractive index changes. In addition, running buffer injections were performed to allow subtraction of the signal changes resulting from the dissociation of captured antibodies from the coupled anti-His surface. Kinetic association (kₐ) and dissociation ([…]) rate constants were determined by fitting the real-time sensorgrams to a 1:1 binding model using Scrubber v2.0c curve fitting software. Binding dissociation equilibrium constants (KD) and dissociative half-lives (t %) were calculated from the kinetic rate constants as: […]

Test [4] has as its target T1, mouse CACNG1 expressed on cells. In words: imaging cell binding, C2C12 mouse myotubes. The procedure: as §1, §2
Test [5] has as its target T3, human CACNG1 expressed on cells (human, UniProt Q06432 1-222). Description: cell-based or functional assay.
Test [6] concerns the target T3, human CACNG1 expressed on cells. Description: imaging cell binding, HEK293/hCACNG1. As to the method:
as §1, §2

Test [7] shares this target. In words: imaging cell binding, HuSKM myotubes. As to the method: as §1, §2

T3 sequence (Q06432 whole entry): as above

B1: REGN7660 (antibody, human IgG4 S228P, kappa, V domains shown)
VH: EVQLVESGGGLVQPGGSLKLSCTASGLTLSDSAMHWVRQASGKGLEWVGRIRNKANRYATEYAASVKGRFTISRDDSKNTAYLQMNSLKTEDTAVYYCTRNWKIFLFDYWGQGTLVTVSS
VL: EIVLTQSPGTLTLSPGERATLSCRASQSVGSKYLAWFQQKRGQAPRLLIYGASSRTSGIPDRISGSGSGTDFTLTISRLEPEDFAVYYCQQYGSSPWTFGQGTKVEIKR
notes: hIgG4
Consider B1, for which, in test [1], the “% KILL, indirect cell killing, C2C12” value stood at 99.8%; the “% KILL, indirect cell killing, HEK293/mCACNG1” value (from here on “% KILL … HEK293/mCACNG1”) worked out at 92.3%; the “EC50/IC50, indirect cell killing, C2C12” value was 0.0237 nM; the “EC50/IC50, indirect cell killing, HEK293/mCACNG1” value (from here on “EC50/IC50 … HEK293/mCACNG1”) turned out to be 0.0134 nM. Also, in test [2], the EC50 is greater than 100 nM and the S/N was 7.2 fold. In test [3], the Kd is 12.6 nM, the koff came to 0.0243 s⁻¹, the kon was determined as 1.93e+06 M⁻¹ s⁻¹ and the “mAb bound at 300 nM” value was found to be 23 RU. This molecule also showed a t1/2 in test [3] of 0.5 min. For the same molecule, the S/N in test [4] is 1 fold.

B2: H2aM31944N (antibody, mouse IgG2a, kappa, V domains shown)
VH: QVQLVESGGGVVQPGRSLRLSCEASGITFRNYGMHWVRQAPGKGLEWVAVMWYDGSNKYYADSVKGRFTISRDNSKNTVYLQMNSLRAEDTAVYYCARRGHIATAAPFDYWGQGTLVTVSS
VL: DIQMTQSPSSLSASVGDRVTISCRASQSISSYLNWYQQKPGKAPKVLMYAASSLQSGVPSRFSGSGSGTDFTLTISSLQPEDFATYYCQQSYSTPPITFGQGTRLEIKR
notes: mIgG2a; also called CACNG1 mIgG2a antibody
For B2, in test [5], the “% KILL, indirect cell killing, HEK293/hCACNG1” value (“% KILL … HEK293/hCACNG1” for short) was 95.7%; the “% KILL, indirect cell killing, HuSKM” value stood at 98.6%; the “EC50/IC50, indirect cell killing, HEK293/hCACNG1” value (“EC50/IC50 … HEK293/hCACNG1” below) came out at 0.000356 nM; the “EC50/IC50, indirect cell killing, HuSKM” value worked out at 0.0116 nM. Besides, in test [1], the “% KILL, indirect cell killing, C2C12” value turned out to be 0%; the “% KILL … HEK293/mCACNG1” value was 4.3%; the “EC50/IC50, indirect cell killing, C2C12” value is greater than 10 nM; the “EC50/IC50 … HEK293/mCACNG1” value is greater than 1 nM. Besides, in test [6], the midpoint of the response, the EC50, lay at 3.3 nM and the S/N turned out to be 93.4 fold. In addition, in test [2], the EC50 was greater than 100 nM and the S/N turned out to be 2.2 fold. Moreover, in test [7], a half-maximal effect (EC50) was put at 0.48 nM and the S/N was 321 fold. Moreover, in test [3], the Kd turned out to be 17.1 nM, the koff was 0.00395 s⁻¹, the on-rate (kon) worked out at 231000 M⁻¹ s⁻¹ and the “mAb bound at 300 nM” value was determined as 16 RU. The molecule further displayed a t1/2 in test [3] of 2.9 min. The same molecule yielded a S/N in test [4] of 0.7 fold.

B3: REGN10728 (antibody, human IgG4 S228P, kappa)
heavy: QVQLVESGGGVVQPGRSLRLSCTASGITFRNYGMHWVRQAPGKGLEWVAVMWYDGSNKYYADSVKGRFTISGDNSKVYLQMNSLRAEDTAVYYCARRGTIRTAAPFDYWGQGTLVTVSSASTKGPSVFPLAPCSRSTSESTAALGCLVKDYFPEPVTVSWNSGALTSGVHTFPAVLQSSGLYSLSSVVTVPSSSLGTKTYTCNVDHKPSNTKVDKRVESKYGPPCPPCPAPGGGGPSVFLFPPKPKDTLMISRTPEVTCVVVDVSQEDPEVQFNWYVDGVEVHNAKTKPREEQFNSTYRVVSVLTVLHQDWLNGKEYKCKVSNKGLPSSIEKTISKAKGQPREPQVYTLPPSQEEMTKNQVSLTCLVKGFYPSDIAVEWESNGQPENNYKTTPPVLDSDGSFFLYSRLTVDKSRWQEGNVFSCSVMHEALHNHYTQKSLSLSLGK
light: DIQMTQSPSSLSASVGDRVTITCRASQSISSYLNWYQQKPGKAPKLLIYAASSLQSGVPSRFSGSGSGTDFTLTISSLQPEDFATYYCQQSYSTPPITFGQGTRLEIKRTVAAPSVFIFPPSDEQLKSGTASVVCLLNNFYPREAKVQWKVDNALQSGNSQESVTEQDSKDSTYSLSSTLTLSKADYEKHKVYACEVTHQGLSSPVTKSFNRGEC
notes: also called H2aM31929N/REGN10728; CACNG1 hIgG4 uber stealth antibody
Turning to B3, in test [5], the “% KILL … HEK293/hCACNG1” value was 95.8%; the “% KILL, indirect cell killing, HuSKM” value was 99.3%; the “EC50/IC50 … HEK293/hCACNG1” value was 0.000519 nM; the “EC50/IC50, indirect cell killing, HuSKM” value was 0.0381 nM. In addition, in test [1], the “% KILL, indirect cell killing, C2C12” value was determined as 1.6%; the “% KILL … HEK293/mCACNG1” value was 5.1%; the “EC50/IC50, indirect cell killing, C2C12” value was greater than 10 nM; the “EC50/IC50 … HEK293/mCACNG1” value is greater than 1 nM. In test [6], the EC50 turned out to be 2.4 nM and the S/N was found to be 138 fold. Further, in test [2], the S/N amounted to 0.8 fold. In test [7], this molecule yielded an EC50 of 1.3 nM and a S/N of 467 fold. Moreover, in test [4], the S/N is 1.8 fold and the binding result is given as “no binding (tested: 100 nM highest tested)”.

B4: REGN10715 (antibody, human IgG4 S228P, kappa)
heavy: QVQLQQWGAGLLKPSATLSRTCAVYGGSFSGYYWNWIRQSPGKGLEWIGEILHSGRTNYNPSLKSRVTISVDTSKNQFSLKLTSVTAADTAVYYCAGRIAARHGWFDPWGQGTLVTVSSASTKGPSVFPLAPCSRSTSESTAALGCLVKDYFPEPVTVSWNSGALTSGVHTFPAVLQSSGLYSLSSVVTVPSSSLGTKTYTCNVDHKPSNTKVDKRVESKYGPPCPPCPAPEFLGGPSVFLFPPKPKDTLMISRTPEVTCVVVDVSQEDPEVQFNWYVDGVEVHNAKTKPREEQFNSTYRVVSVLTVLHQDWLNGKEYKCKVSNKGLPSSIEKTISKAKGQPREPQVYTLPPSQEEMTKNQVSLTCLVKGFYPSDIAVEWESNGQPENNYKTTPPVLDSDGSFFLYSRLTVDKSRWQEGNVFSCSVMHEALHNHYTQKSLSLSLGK
light: DIQMTQSPSSVSTSVGDRVTISCRASQDIRKWLAWYQQKPGKAPKLLIYATSSLQSGVPSRFSGSGSGTDFTLTISSLQPEDFATYFCQQANSFPFTFGQGTKLEIKRTVAAPSVFIFPPSDEQLKSGTASVVCLLNNFYPREAKVQWKVDNALQSGNSQESVTEQDSKDSTYSLSSTLTLSKADYEKHKVYACEVTHQGLSSPVTKSFNRGEC
notes: hIgG4
For the molecule B4, in test [5], the “% KILL … HEK293/hCACNG1” value came to 96.4%; the “% KILL, indirect cell killing, HuSKM” value was found to be 99.6%; the “EC50/IC50 … HEK293/hCACNG1” value stood at 0.000629 nM; the “EC50/IC50, indirect cell killing, HuSKM” value came to 0.0097 nM. Further, in test [1], the “% KILL, indirect cell killing, C2C12” value turned out to be 99.8%; the “% KILL … HEK293/mCACNG1” value was found to be 96.1%; the “EC50/IC50, indirect cell killing, C2C12” value was found to be 0.00469 nM; the “EC50/IC50 … HEK293/mCACNG1” value is 0.000187 nM. Further, in test [6], the EC50 stood at 2.7 nM and the S/N turned out to be 91.3 fold. In test [2], this molecule displayed a 50% effective concentration (EC50) of 0.26 nM and a S/N of 69.4 fold. In test [7], this molecule showed an EC50 of 0.2 nM and a S/N of 1060 fold. For the same molecule, in test [3], binding was put at a Kd of 1.98 nM, the koff came to 0.000301 s⁻¹, the association rate constant (kon) came to 152000 M⁻¹ s⁻¹ and the “mAb bound at 300 nM” value is 31 RU. This molecule displayed a t1/2 in test [3] of 38.4 min. In test [4], the midpoint of the response, the EC50, lay at 2.3 nM and the S/N turned out to be 8.4 fold.

B5: REGN10713 (antibody, human IgG4 S228P, lambda)
heavy: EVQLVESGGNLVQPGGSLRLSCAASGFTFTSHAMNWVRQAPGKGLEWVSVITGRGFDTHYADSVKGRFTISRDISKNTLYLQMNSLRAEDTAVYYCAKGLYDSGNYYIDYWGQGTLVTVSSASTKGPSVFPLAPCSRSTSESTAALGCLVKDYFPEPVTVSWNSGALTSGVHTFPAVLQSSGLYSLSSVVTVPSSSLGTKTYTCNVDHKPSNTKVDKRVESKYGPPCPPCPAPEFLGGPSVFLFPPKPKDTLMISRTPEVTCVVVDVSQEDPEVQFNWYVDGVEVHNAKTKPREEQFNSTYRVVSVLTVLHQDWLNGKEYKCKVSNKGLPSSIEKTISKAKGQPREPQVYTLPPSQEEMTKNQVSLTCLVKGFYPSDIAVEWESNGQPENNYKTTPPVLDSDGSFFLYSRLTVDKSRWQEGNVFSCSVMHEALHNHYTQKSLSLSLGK
light: QSVLTQPPSVSAAPGQKVTISCSGSSSNIGNNYVSWYQQLPGTAPKLLIYDNNKRPSGIPDRFSGSKSGTSATLGITGLQTGDEADYYCGTWDLSLSFNWVFGGGTKLTVLGQPKAAPSVTLFPPSSEELQANKATLVCLISDFYPGAVTVAWKADSSPVKAGVETTTPSKQSNNKYAASSYLSLTPEQWKSHRSYSCQVTHEGSTVEKTVAPTECS
notes: hIgG4
As to B5, in test [1], the “% KILL, indirect cell killing, C2C12” value was 0%; the “% KILL … HEK293/mCACNG1” value was 2.4%; the “EC50/IC50, indirect cell killing, C2C12” value is greater than 10 nM; the “EC50/IC50 … HEK293/mCACNG1” value was greater than 1 nM. In test [2], the EC50 is greater than 100 nM and the S/N stood at 2.7 fold. In addition, in test [3], the dissociation constant Kd came out at 0.635 nM, the koff is 4.72e-05 s⁻¹, the kon was 74200 M⁻¹ s⁻¹ and the “mAb bound at 300 nM” value came out at 53 RU. The molecule further showed a t1/2 in test [3] of 245 min. Moreover, the S/N in test [4] amounted to 2 fold.
